From paper doi:10.1101/2022.01.04.474899 (bioRxiv, 2022)

Molecular target: the molecule itself
Assay: SDS-PAGE immunoblot

B1: recombinant human asprosin with C-terminal 2×Strep-tag II (natural protein, UniProt P35555 2732-2871, looked up)
chain: STNETDASNIEDQSETEANVSLASWDVEKTAIFAFNISHVSNKVRILELLPALTTLTNHNRYLIESGNEDGFFKINQKEGISYLHFTKKKPVAGTYSLQISSTPLYKKKELNQLEDKYDKDYLSGELGDNLKMKIQVLLH
stoichiometry N: 4
